Reference: patent publication US20210147536A1 (MAB VENTURE BIOPHARM, published 2021)
Read-outs that look alike come from different tables or passages of the source.

What was measured:
[1] = target: T1, human LAG-3 on the cell surface (human, UniProt P18627 23-525); test: cell-based or functional assay
T1 sequence (looked up): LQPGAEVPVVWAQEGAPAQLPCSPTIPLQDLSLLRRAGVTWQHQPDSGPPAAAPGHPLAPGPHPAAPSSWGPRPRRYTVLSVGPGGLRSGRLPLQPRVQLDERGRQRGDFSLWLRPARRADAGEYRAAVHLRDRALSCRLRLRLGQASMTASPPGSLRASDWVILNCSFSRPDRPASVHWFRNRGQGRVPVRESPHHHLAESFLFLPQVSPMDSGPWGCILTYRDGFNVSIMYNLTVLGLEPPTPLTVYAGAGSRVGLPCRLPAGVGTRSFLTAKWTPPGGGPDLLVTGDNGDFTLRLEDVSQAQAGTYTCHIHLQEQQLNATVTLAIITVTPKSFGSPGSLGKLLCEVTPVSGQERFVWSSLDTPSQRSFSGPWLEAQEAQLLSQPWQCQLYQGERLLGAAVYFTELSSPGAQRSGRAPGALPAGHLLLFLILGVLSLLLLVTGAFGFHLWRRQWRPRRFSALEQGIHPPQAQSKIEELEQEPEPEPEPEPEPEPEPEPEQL

[2] = target: T1, human LAG-3 on the cell surface; test: cell-based or functional assay; remark: listed apart in the source
[3] = target: T2, human LAG-3-6*His tag recombinant fusion protein (human, UniProt P18627 23-450, biotin-labelled in panning and in Example 9); test: ELISA as in Example 4 (antibody coated, human LAG-3-6*His titrated); N = 5
T2 construct: Bought protein; also called hLAG-3-6*his tag recombinant protein; human LAG-3-his tag recombinant fusion protein
T2 sequence: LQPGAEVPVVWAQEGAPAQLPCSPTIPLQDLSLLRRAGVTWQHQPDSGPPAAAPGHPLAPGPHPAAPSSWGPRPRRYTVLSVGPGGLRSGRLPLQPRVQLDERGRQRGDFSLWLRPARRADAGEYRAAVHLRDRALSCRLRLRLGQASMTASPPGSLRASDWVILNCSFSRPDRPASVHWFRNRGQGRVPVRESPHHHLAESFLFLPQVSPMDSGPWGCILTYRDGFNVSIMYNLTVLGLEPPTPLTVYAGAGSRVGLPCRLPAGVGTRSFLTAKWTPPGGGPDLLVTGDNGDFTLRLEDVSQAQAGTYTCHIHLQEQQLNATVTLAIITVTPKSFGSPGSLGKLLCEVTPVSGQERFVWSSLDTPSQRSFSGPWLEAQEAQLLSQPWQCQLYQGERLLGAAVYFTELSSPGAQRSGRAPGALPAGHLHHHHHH

[4] = target: T3, recombinant mouse LAG-3-6*His tag fusion protein (mouse, UniProt Q61790 23-442); test: ELISA, antibody coated at 1 µg/ml, mouse LAG-3-6*His titrated, anti-His HRP
T3 construct: made in Expi293 cells from the mouse LAG-3 cDNA; also called mouse LAG-3 antigen
T3 sequence: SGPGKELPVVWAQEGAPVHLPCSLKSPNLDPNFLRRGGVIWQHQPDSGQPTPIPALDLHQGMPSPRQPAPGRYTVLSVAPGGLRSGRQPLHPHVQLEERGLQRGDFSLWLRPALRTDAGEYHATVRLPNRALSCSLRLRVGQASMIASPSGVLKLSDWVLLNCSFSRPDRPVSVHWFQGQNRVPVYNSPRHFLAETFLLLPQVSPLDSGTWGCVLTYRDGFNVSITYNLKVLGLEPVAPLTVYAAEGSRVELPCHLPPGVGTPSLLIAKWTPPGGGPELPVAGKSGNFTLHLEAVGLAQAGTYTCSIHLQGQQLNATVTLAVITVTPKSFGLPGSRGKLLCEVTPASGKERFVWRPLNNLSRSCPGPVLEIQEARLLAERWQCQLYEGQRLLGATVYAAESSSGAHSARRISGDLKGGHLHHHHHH

[5] = target: T1, human LAG-3 on the cell surface; test: flow cytometry on activated human CD4+ T cells expressing LAG-3, PE anti-human antibody
[6] = target: T4, human LAG-3-mFc recombinant fusion protein (human); test: flow cytometry, blocking of hLAG-3-mFc (10 µg/ml) binding to MHC class II on Daudi cells
T4 construct: also called hLAG-3-mFc
T4 chain: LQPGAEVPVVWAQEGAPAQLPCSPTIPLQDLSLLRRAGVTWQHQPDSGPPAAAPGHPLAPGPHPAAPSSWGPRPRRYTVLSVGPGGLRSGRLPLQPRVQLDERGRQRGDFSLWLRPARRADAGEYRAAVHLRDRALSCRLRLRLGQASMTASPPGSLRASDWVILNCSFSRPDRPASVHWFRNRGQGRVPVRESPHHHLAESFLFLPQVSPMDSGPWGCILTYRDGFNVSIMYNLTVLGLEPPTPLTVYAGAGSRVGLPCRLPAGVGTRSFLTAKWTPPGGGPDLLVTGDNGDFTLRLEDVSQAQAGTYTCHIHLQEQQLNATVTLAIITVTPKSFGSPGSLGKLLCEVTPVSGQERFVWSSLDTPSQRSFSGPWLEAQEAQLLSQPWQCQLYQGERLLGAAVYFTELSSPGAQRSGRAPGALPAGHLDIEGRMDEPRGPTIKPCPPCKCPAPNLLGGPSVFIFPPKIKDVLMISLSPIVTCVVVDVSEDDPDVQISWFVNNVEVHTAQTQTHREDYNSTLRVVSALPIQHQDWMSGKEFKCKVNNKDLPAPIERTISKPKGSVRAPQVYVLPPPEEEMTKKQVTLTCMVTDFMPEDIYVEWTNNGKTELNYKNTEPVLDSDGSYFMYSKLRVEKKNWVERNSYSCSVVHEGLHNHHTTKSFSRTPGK

[7] = target: T5, recombinant Macaca fascicularis LAG-3-6*His tag fusion protein (Macaca fascicularis); test: ELISA, antibody coated at 1 µg/ml, Macaca fascicularis LAG-3-6*His titrated, anti-His HRP
T5 construct: Bought protein; also called Macaca fascicularis LAG-3 antigen

[8] = target: T2, human LAG-3-6*His tag recombinant …; test: BLI (Octet Red96), biotinylated hLAG-3-6*his on SA biosensor, antibody 100 µg/mL in solution, 1:2 binding model
[9] = target: T2, human LAG-3-6*His tag recombinant …; test: as above; remark: listed apart in the source

B1: anti-human LAG-3 full human monoclonal antibody MV705-3 (antibody, human IgG4, V domains shown)
VH: EVQLLESGAEVKKPGASVKVSCKASGYTFTSYGISWVRQAPGQGLEWMGWISAYNGNTNYAQKLQGRVTMTTDTSTSTAYMELRSLRSDDTAVYYCARDGWWELLRPDDAFDIWGQGTTVTVSS
VL: QLVLTQSPSVSVSPGQTASITCSGDKLGDKYAYWYQQKPGQAPVLVIYYDSDRPSGIPERFSGSNSGNTATLTISRVEAGDEADYYCQVWDSSSDQVVFGGGTQLTVLG
notes: Full IgG4 with lambda light chain; also called MV705-3(DD + DD)
[1]
  EC50 of NFAT reporter gene induction (bio-glo luciferase), LAG3/NFAT Reporter-Jurkat + Raji cells + superantigen: 0.04 µg/mL
[2]
  EC50, ability to activate T cells in vitro (LAG3/NFAT Reporter-Jurkat): 0.13 µg/mL
[3]
  EC50: 0.039 µg/mL
[4]
  EC50: 2.6 µg/mL
[5]
  EC50: 1.9 ng/mL
[6]
  IC50: 2.8 µg/mL
[7]
  EC50: 0.11 µg/mL
[8]
  Kd: 4.83 nM
  koff: 0.000442 s⁻¹
  kon: 91600 M⁻¹ s⁻¹
[9]
  Kd: 3.04 nM
  koff: 0.000373 s⁻¹
  kon: 122000 M⁻¹ s⁻¹
